± gives the uncertainty stated by the source.

Data on 167 variants can be found in the Human Domainome abundance scans (Beltran et al. 2025).

B1: Friend leukemia integration 1 transcription factor, residues 116 to 197; numbered along this chain, Q01543 (parent)
chain: NMTTNERRVIVPADPTLWTQEHVRQWLEWAIKEYSLMEIDTSFFQNMDGKELCKMNKEDFLRATTLYNTEVLLSHLSYLRES
B2: Transcription factor SOX-4, residues 60 to 127; numbered along this chain, Q06945 (parent)
chain: KRPMNAFMVWSQIERRKIMEQSPDMHNAEISKRLGKRWKLLKDSDKIPFIREAERLRLKHMADYPDYK

In the first data set the parent is B1. Put plainly: abundance fitness (aPCA) (normalised: wild type 0, dead -1); higher = more abundant; growth selection in yeast, the domain comes from the species named. The note with it: Homo sapiens.
In the case of H75Y, the abundance fitness was -0.201 ± 0.33.

With L73Y, the abundance fitness was -0.281 ± 0.26.

Turning to L73P, the abundance fitness was -0.854 ± 0.2.

Regarding L73V, the abundance fitness was -0.085 ± 0.074.

Regarding L73W, the abundance fitness was 0.039 ± 0.076.

On to L73T, for which the abundance fitness was -0.044 ± 0.086.

On to L73R, for which the abundance fitness is -0.144 ± 0.073.

With L73N, the abundance fitness is -0.631 ± 0.25.

On to S77T, for which the abundance fitness came to 0.032 ± 0.33.

With S77P, the abundance fitness was -0.216 ± 0.23.

Regarding S82P, the abundance fitness is -0.125 ± 0.46.

As to S82F, the abundance fitness is -0.112 ± 0.27.

On to E81D, for which the abundance fitness was -0.092 ± 0.23.

In the case of R80S, the abundance fitness turned out to be 0.103 ± 0.37.

With Y78V, the abundance fitness is 0.124 ± 0.22.

As to L79F, the abundance fitness is -0.657 ± 0.47.

As to L76R, the abundance fitness is -0.723 ± 0.26.

L76F: the abundance fitness is -0.555 ± 0.29.

As to L76Q, the abundance fitness is -0.879 ± 0.23.

L76G: the abundance fitness was -0.28 ± 0.25.

On to L76N, for which the abundance fitness is -0.799 ± 0.46.

L76P: the abundance fitness was -0.7 ± 0.27.

On to L76H, for which the abundance fitness is -0.841 ± 0.35.

Turning to L76M, the abundance fitness was -0.218 ± 0.12.

Turning to L76T, the abundance fitness was -0.916 ± 0.33.

For the variant L76E, the abundance fitness is -0.794 ± 0.32.

On to L76V, for which the abundance fitness was -0.432 ± 0.13.

In the case of L76I, the abundance fitness was -0.391 ± 0.34.

On to L76S, for which the abundance fitness is -0.553 ± 0.17.

Turning to S74C, the abundance fitness is -0.101 ± 0.17.

As to S74T, the abundance fitness is -0.076 ± 0.12.

With S74R, the abundance fitness amounted to 0.042 ± 0.13.

Turning to S74P, the abundance fitness is -0.417 ± 0.11.

Turning to S74E, the abundance fitness is 0.271 ± 0.16.

As to S74V, the abundance fitness was -0.567 ± 0.14.

Turning to S74D, the abundance fitness was 0.014 ± 0.35.

Consider S74M, for which the abundance fitness is -0.049 ± 0.11.

On to S74K, for which the abundance fitness came to 0.133 ± 0.12.

As for S74H, the abundance fitness was -0.066 ± 0.18.

Consider S74Y, for which the abundance fitness was 0.134 ± 0.27.

For S74Q, the abundance fitness was -0.405 ± 0.25.

In the case of S74A, the abundance fitness worked out at 0.029 ± 0.1.

S74W: the abundance fitness was -0.561 ± 0.15.

Regarding S74F, the abundance fitness was -0.404 ± 0.19.

Take S74G: the abundance fitness was found to be 0.026 ± 0.12.

For S74L, the abundance fitness was -0.28 ± 0.047.

The variants in a further data set derive from B2. Described as above. The note with it: Homo sapiens.
Consider A28K, for which the abundance fitness was -0.099 ± 0.086.

Turning to A28S, the abundance fitness was -0.029 ± 0.052.

On to A28I, for which the abundance fitness is -0.463 ± 0.29.

With A28V, the abundance fitness was -0.169 ± 0.063.

For N27M, the abundance fitness was -0.043 ± 0.054.

For N27A, the abundance fitness was determined as 0.004 ± 0.055.

For the variant N27Y, the abundance fitness was -0.179 ± 0.052.

Take N27P: the abundance fitness was found to be 0.184 ± 0.076.

For N27S, the abundance fitness came to 0.07 ± 0.049.

Take N27K: the abundance fitness was -0.03 ± 0.052.

For R16L, the abundance fitness is -0.154 ± 0.04.

On to R16Q, for which the abundance fitness was -0.023 ± 0.067.

Take R16T: the abundance fitness is -0.077 ± 0.049.

For the variant M25Q, the abundance fitness is -0.595 ± 0.15.

As for M25C, the abundance fitness is -0.258 ± 0.1.

On to A6N, for which the abundance fitness is -0.943 ± 0.074.

For the variant A6K, the abundance fitness is -0.791 ± 0.092.

A6P: the abundance fitness was -0.111 ± 0.092.

Turning to A6D, the abundance fitness is -0.607 ± 0.076.

As for M8R, the abundance fitness was -0.176 ± 0.038.

Turning to M8S, the abundance fitness was -0.072 ± 0.037.

Regarding M8K, the abundance fitness was -0.205 ± 0.054.

For M8C, the abundance fitness is -0.278 ± 0.061.

As to M8L, the abundance fitness is -0.084 ± 0.043.

On to M8H, for which the abundance fitness worked out at 0.042 ± 0.062.

M8G: the abundance fitness was found to be 0.025 ± 0.041.

On to M8N, for which the abundance fitness was -0.242 ± 0.04.

For I18W, the abundance fitness is -0.787 ± 0.082.

I18F: the abundance fitness is -0.351 ± 0.15.

Consider I18C, for which the abundance fitness was -0.278 ± 0.45.

As to I18Q, the abundance fitness is -0.948 ± 0.3.

Consider K36G, for which the abundance fitness is -0.416 ± 0.08.

On to K36E, for which the abundance fitness was determined as 0.325 ± 0.071.

Take K36C: the abundance fitness is -0.482 ± 0.28.

With K36R, the abundance fitness is -0.075 ± 0.061.

S22V: the abundance fitness was -0.272 ± 0.042.

Take L56Q: the abundance fitness is -0.108 ± 0.08.

With L56S, the abundance fitness is -0.282 ± 0.049.

For the variant L56A, the abundance fitness is -0.355 ± 0.073.

Turning to L56F, the abundance fitness was -0.543 ± 0.11.

For the variant S44M, the abundance fitness is -0.243 ± 0.1.

S44T: the abundance fitness is -0.134 ± 0.12.

Regarding S44P, the abundance fitness was -0.465 ± 0.13.

For S44W, the abundance fitness was -0.41 ± 0.099.

Turning to S44R, the abundance fitness was -0.264 ± 0.066.

For D66L, the abundance fitness is -0.152 ± 0.06.

For D66A, the abundance fitness was -0.186 ± 0.066.

Consider D66E, for which the abundance fitness is 0.102 ± 0.085.

Consider D66H, for which the abundance fitness is -0.141 ± 0.13.

As for D66C, the abundance fitness is -0.422 ± 0.1.

As for K42W, the abundance fitness is -0.786 ± 0.13.

For the variant K42Q, the abundance fitness is -0.104 ± 0.063.

As to K42L, the abundance fitness was -0.368 ± 0.055.

As for K42N, the abundance fitness is -0.212 ± 0.17.

For R57D, the abundance fitness is -0.372 ± 0.11.

As for R57S, the abundance fitness is -0.309 ± 0.08.

In the case of R57T, the abundance fitness is -0.19 ± 0.17.

Turning to R57H, the abundance fitness is -0.815 ± 0.41.

Consider R57Q, for which the abundance fitness was -0.206 ± 0.1.

On to P65Q, for which the abundance fitness came to 0.042 ± 0.063.

As for P65H, the abundance fitness was -0.09 ± 0.11.

P65G: the abundance fitness was -0.059 ± 0.09.

P65M: the abundance fitness is -0.193 ± 0.089.

In the case of A53C, the abundance fitness was -0.824 ± 0.27.

A53H: the abundance fitness is -0.42 ± 0.17.

Take A53L: the abundance fitness is -0.856 ± 0.17.

Turning to A53I, the abundance fitness is -0.662 ± 0.23.

Consider F49H, for which the abundance fitness was -0.131 ± 0.31.

On to F49M, for which the abundance fitness was -1.08 ± 0.31.

Regarding F49I, the abundance fitness is -0.82 ± 0.26.

Regarding F49G, the abundance fitness was -0.702 ± 0.092.

With F49P, the abundance fitness was -1.08 ± 0.23.

As for M4V, the abundance fitness was -0.068 ± 0.044.

With M4S, the abundance fitness was -0.492 ± 0.085.

In the case of M4H, the abundance fitness is -0.589 ± 0.14.

M4P: the abundance fitness was 0.002 ± 0.073.

Consider G35T, for which the abundance fitness was 0.15 ± 0.049.

For G35Y, the abundance fitness stood at 0.119 ± 0.05.

Turning to G35K, the abundance fitness came out at 0.262 ± 0.083.

On to G35D, for which the abundance fitness came out at 0.116 ± 0.05.

Regarding G35A, the abundance fitness was found to be 0.171 ± 0.048.

With A62M, the abundance fitness was -0.304 ± 0.075.

With A62I, the abundance fitness is -0.163 ± 0.064.

Regarding A62H, the abundance fitness was -0.175 ± 0.067.

For the variant A62Y, the abundance fitness was -0.104 ± 0.052.

Consider Y64W, for which the abundance fitness is -0.25 ± 0.077.

Turning to Y64K, the abundance fitness came out at 0.128 ± 0.095.

As for Y64I, the abundance fitness is -0.109 ± 0.18.

On to Y64N, for which the abundance fitness worked out at 0.124 ± 0.12.

With Y64V, the abundance fitness was 0.02 ± 0.063.

Consider Y64P, for which the abundance fitness is -0.009 ± 0.061.

Take K17G: the abundance fitness is -0.783 ± 0.075.

K17Q: the abundance fitness is -0.092 ± 0.078.

Consider K17S, for which the abundance fitness was -0.439 ± 0.075.

As to K17Y, the abundance fitness was -0.421 ± 0.095.

In the case of K17C, the abundance fitness was -0.857 ± 0.18.

Consider K17L, for which the abundance fitness is -0.215 ± 0.052.

For K17P, the abundance fitness was -0.987 ± 0.23.

With K17H, the abundance fitness was -0.426 ± 0.14.

Turning to K17N, the abundance fitness was -0.262 ± 0.17.

L40S: the abundance fitness was found to be 0.039 ± 0.042.

On to D45Q, for which the abundance fitness is -0.097 ± 0.16.

In the case of D45G, the abundance fitness is -0.495 ± 0.1.

On to D45R, for which the abundance fitness is -0.74 ± 0.094.

As for D45W, the abundance fitness was -0.344 ± 0.12.

W10M: the abundance fitness is -1.08 ± 0.34.

As for W10T, the abundance fitness was -0.958 ± 0.24.

As for W10A, the abundance fitness is -1.03 ± 0.21.

For the variant R37H, the abundance fitness was -0.313 ± 0.25.

With R37P, the abundance fitness was -0.811 ± 0.16.

Consider R37C, for which the abundance fitness was -0.366 ± 0.2.

As to R37M, the abundance fitness was -0.067 ± 0.13.

For I50K, the abundance fitness was -0.362 ± 0.14.

I50C: the abundance fitness was -0.51 ± 0.2.

Regarding I50R, the abundance fitness was -0.2 ± 0.1.

Consider I50A, for which the abundance fitness was -0.186 ± 0.1.

In the case of I47E, the abundance fitness was 0.095 ± 0.059.

Turning to I47F, the abundance fitness is -0.241 ± 0.051.

As to I47L, the abundance fitness was determined as 0.078 ± 0.038.

On to I47T, for which the abundance fitness is -0.178 ± 0.046.

For I47H, the abundance fitness is -0.314 ± 0.051.
